Laboratory results from US7067277B1, “Chimeric G proteins and uses thereof” (H. Lundbeck A/S, priority 1999, dated 2006).
Substitutions are numbered along the chain they refer to.

B1: cGαq/z5: chimeric Gα subunit: C-terminal final 5 amino acids of C. elegans Gαq replaced with those of hGαz (SEQ ID NO: 1) (protein)
chain: MACCLSEEAREQKRINQEIEKQLQRDKRNARRELKLLLLGTGESGKSTFIKQMRIIHGQGYSEEDKRAHIRLVYQNVFMAIQSMIRAMDTLDIKFGNESEELQEKAAVVREVDFESVTSFEEPYVSYIKELWEDSGIQECYDRRREYQLTDSAKYYLSDLRRLAVPDYLPTEQDILRVRVPTTGIIEYPFDLEQIIFRMVDVGGQRSERRKWIHCFENVTSIMFLVALSEYDQVLVECDNENRMEESKALFRTIITYPWFTNSSVILFLNKKDLLEEKILYSHLADYFPEYDGPPRDPIAAREFILKMFVDLNPDADKIIYSHFTCATDTENIRFVFAAVKDTILQHNLKYIGLC
modifications: C. elegans
B2: cGαq/z9: C. elegans Gαq with Gαz portion of the C-terminal tail extended to 9 amino acids (SEQ ID NO: 2) (protein)
chain: B1 chain with H347N
modifications: C. elegans

How the values were obtained:
Format in all cases: cell-based
[1] = test system: panel of 36 different GPCRs, including Gαi/i-, Gαs-, and Gαq-coupling receptors; test: Detection rate in COS-7 calcium mobilization over a GPCR panel; settings: COS-7, single chimera co-transfected with each GPCR
Experimental: COS-7 cells were cultured in 225 cm^2 flasks in Dulbecco's Modified Eagle Medium (DMEM) with supplements (10% bovine calf serum, 4 mM glutamine, 100 units/ml penicillin and 100 μg/ml streptomycin) at 37° C., 5% CO2. Stock plates of COS-7 cells were trypsinized and split 1:6 every 3–4 days.
GPCR and chimeric G protein cDNAs were transiently transfected into COS-7 cells in 150 cm^2 flasks by the DEAE-dextran method (Cullen, 1987), using a total of 20 μg of DNA/˜7×10^6 cells. For evaluating the function of a single chimeric G protein, the standard cDNA transfection ratio was 1:1 (10 μg GPCR cDNA and 10 μg chimeric G protein cDNA). […]
Twenty four hours after transient transfection, COS-7 cells were seeded into 96-well black wall microtiter plates coated with poly-D-lysine for assay the following day. […] Basal fluorescence was monitored in a fluorometric imaging plate reader (FLIPR™, Molecular Devices) with an excitation wavelength of 488 nm and an emission range of 500 to 560 nm. Laser excitation energy was adjusted so that basal fluorescence readings were approximately 10,000 relative fluorescent units. Cells were stimulated with agonists diluted in assay buffer (50 μl), and relative fluorescent units were measured at defined intervals (exposure=0.4 sec) over a 3 min period at room temperature. Maximum change in fluorescence was calculated for each well. […]

[2] = biological target: T1, Human NPFF1 (Homo sapiens, UniProt Q9GZQ6); test: Cl- current recording in Xenopus oocytes expressing GPCR and chimeric G protein; settings: Xenopus oocytes expressing Human NPFF1 and chimera, 1 μM NPFF, mean ± s.e.m
T1 construct: linearized plasmids or PCR products containing the complete coding region of the genes; expressed in transfected cells; host or cells: Xenopus laevis oocytes (receptor cRNA injected)
T1 sequence (Q9GZQ6 whole entry): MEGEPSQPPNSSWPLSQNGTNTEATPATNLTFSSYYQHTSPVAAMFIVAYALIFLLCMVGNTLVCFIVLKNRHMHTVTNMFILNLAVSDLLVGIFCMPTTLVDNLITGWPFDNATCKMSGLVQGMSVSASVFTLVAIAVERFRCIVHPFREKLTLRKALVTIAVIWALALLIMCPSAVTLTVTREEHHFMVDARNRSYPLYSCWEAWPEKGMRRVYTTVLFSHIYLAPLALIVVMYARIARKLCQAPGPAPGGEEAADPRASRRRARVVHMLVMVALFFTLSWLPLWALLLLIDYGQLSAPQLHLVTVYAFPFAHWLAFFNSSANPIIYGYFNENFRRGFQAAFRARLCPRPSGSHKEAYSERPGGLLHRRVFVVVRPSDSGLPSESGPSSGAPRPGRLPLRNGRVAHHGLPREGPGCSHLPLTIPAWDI
Experimental: Oocytes were harvested from Xenopus laevis and injected with mRNA transcripts as previously described (Quick and Lester, 1994; Smith et al., 1997). Receptor and chimeric G protein α subunit RNA transcripts were synthesized using the T7 polymerase (“Message Machine,” Ambion) from linearized plasmids or PCR products containing the complete coding region of the genes. Oocytes were injected with 5–25 ng synthetic receptor RNA and incubated for 3–8 days at 17 degrees. Three to eight hours prior to recording, oocytes were injected with 500 pg chimeric Gα subunit mRNA. Dual electrode voltage clamp (Axon Instruments Inc.) was performed using 3 M KCl-filled glass microelectrodes having resistances of 1–2 MOhm. Unless otherwise specified, oocytes were voltage clamped at a holding potential of −80 mV. During recordings, oocytes were bathed in continuously flowing (1–3 ml/min) medium containing 96 mM NaCl, 2 mM KCl, 1.8 mM CaCl2, 1 mM MgCl2, and 5 mM HEPES, pH 7.5 (ND96). Drugs were applied by local perfusion from a 10 μl glass capillary tube fixed at a distance of 0.5 mm from the oocyte. Experiments were carried out at room temperature. All values are expressed as mean±standard error of the mean.

[3] = biological target: h MCH (Homo sapiens, UniProt Q99705); test: Calcium mobilization (FLIPR, Fluo-3) in transfected COS-7 cells; settings: h MCH + chimera in COS-7; agonist MCH, max 10 μM
Chain of h MCH (Q99705 whole entry): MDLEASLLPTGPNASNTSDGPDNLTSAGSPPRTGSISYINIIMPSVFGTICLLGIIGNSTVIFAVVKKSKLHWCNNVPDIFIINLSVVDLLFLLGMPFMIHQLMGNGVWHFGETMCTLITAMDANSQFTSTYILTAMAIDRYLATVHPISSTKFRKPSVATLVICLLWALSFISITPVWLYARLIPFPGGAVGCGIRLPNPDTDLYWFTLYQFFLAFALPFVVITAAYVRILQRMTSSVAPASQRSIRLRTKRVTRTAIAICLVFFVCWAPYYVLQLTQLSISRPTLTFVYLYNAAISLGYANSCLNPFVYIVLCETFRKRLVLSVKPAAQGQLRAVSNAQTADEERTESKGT
How it was run: (§1)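 Calcium responses to agonist were measured in COS-7 cells co-expressing each receptor with Gαq/z and/or Gαq/s chimeras, using Fluo-3 dye and FLIPR detection over 3 min at room temperature.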

[4] = biological target: r Y4 (Rattus norvegicus, UniProt Q63447); test: as above; settings: r Y4 + chimera in COS-7; agonist PP, max 10 μM
Chain of r Y4 (Q63447 whole entry): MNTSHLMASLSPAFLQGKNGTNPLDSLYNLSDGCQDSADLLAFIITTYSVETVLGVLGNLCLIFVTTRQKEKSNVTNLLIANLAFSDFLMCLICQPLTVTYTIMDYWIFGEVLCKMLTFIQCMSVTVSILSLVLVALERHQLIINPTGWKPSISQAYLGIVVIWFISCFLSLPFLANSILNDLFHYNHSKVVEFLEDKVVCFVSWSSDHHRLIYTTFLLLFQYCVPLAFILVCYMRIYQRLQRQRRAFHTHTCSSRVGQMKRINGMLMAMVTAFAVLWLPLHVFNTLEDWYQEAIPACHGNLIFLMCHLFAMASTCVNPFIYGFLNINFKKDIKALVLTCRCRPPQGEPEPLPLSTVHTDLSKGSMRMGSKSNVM
How it was run: as §1

[5] = biological target: T2, h α2A adr (Homo sapiens, UniProt P08913); test: as above; settings: h α2A adr + chimera in COS-7; agonist NE, max 100 μM
T2 construct: expressed in transfected cells; host or cells: COS-7
T2 sequence (P08913 1-465): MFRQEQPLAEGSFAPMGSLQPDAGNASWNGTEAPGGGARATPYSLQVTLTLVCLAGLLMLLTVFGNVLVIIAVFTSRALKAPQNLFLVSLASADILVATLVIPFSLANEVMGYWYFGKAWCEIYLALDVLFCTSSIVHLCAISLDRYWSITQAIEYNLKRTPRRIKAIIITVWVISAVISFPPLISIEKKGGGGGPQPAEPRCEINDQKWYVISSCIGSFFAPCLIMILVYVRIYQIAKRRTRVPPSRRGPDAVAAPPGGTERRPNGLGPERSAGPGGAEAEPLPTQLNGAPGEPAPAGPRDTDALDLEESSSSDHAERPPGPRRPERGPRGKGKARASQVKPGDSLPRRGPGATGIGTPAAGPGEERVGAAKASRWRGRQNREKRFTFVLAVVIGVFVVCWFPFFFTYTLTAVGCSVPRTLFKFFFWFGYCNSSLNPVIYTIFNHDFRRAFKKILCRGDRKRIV
How it was run: as §1

[6] = biological target: T3, h 5HT1A (Homo sapiens, UniProt P08908); test: as above; settings: h 5HT1A + chimera in COS-7; agonist 5HT, max 100 μM
T3 sequence (P08908 1-422): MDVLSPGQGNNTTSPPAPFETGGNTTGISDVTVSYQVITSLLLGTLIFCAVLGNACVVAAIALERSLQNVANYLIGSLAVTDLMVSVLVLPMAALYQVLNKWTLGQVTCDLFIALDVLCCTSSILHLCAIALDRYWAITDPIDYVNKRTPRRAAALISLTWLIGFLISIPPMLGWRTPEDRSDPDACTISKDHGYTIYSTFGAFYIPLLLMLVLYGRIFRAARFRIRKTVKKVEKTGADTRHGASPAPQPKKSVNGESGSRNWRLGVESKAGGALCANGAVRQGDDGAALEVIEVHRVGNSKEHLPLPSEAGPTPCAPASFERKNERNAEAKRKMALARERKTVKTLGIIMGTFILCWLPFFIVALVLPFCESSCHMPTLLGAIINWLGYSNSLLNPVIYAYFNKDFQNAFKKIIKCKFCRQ
How it was run: as §1

Row | Molecule | receptors generating positive signals (>500 fluorescence units) / receptors tested [1] | Response amplitudes (nA) in oocytes [2] [nA] | Response amplitudes (nA) in oocytes ([2]; listed as CGαq/z5) [nA] | MAXIMAL SIGNAL (FLUORESCENCE UNITS) [3] [fluorescence units] | MAXIMAL SIGNAL (FLUORESCENCE UNITS) [4] [fluorescence units] | MAXIMAL SIGNAL (FLUORESCENCE UNITS) [5] [fluorescence units] | MAXIMAL SIGNAL (FLUORESCENCE UNITS) [6] [fluorescence units]
1 | B1 | 28/36 | 1258±159 | 1258 ± 159 | 2699 | 3662 | 7575 | 1997
2 | B2 | 29/36 | 1449 ± 398 |  | 3332 | 2583 | 3040 | 3139
